Data from patent publication US6605426B1, “Compounds, methods of screening, and in vitro and in vivo uses involving anti-apoptotic genes and anti-apoptotic gene products” (priority 1998, dated 2003).

B1: pUL37Smyc: pUL37S fused at its C-terminus with a c-myc-epitope tag; constitutively expressed in HeLa/UL37x1#3 cells (protein)
chain: MSPVYVNLLGSVGLLAFWYFSYRWIQRKRLEDPLPPWLRKKKACALTRRSRHRLRRQHGVIDGENSETERSVDLVAALLAEAGEESVTEDTEREDTEEEREDEEEENEARTPEVNPIDAEGLSGLAREACEALKKALRRHRFLWQRRQRARMLQHNGPQQSHQ
B2: pUL36AD169-early: pUL36 of an early (pre-1982) passage of HCMV strain AD169; Cys131 (protein)
chain: MDDLRDTLMAYGCIAIRAGDFNGLNDFLEQECGTRLHVAWPERCFIQLRSRSALGPFVGKMGTVCSQGAYVCCQEYLHPFGFVEGPGFMRYQLIVLIGQRGGIYCYDDLRDCVYELAPTMKDFLRNGFRHCDHFHTMRDYQRPMVQYDDYWNAVMLYRGDVESLSAEVTKRGYASYTIDDPFDECPDTHFAFWTHNTEVMKFKETSFSVVRAGGSIQTMELMIRTVPRITCYHQLLGALGHEVPERKEFLVRQYVLVDTFGVVYGYDPAMDAVYRLAEDVVMFTCVMGKKGHRNHRFSGRREAIVRLEKTPTCQHPKKTPDPMIMFDEDDDDELSLPRNVMTHEEAESRLYDAITENLMHCVKLVTTDSPLATHLWPQELQALCDSPALSLCTDDVEGVRQKLRARTGSLHHFELSYRFHDEDPETYMGFLWDIPSCDRCVRRRRFKVCDVGRRHIIPGAANGMPPLTPPHVYMNN

Key:
HeLa cells [1] = assay: Apoptosis resistance of HeLa clones stably expressing pUL37Smyc; assay type: cell-based, human
Excerpt: In a preferred embodiment, HeLa clones continuously (as opposed to transiently) express the version of pUL37s tagged with the C-terminal myc-peptide (amino acids 408-421 within the carboxy terminal domain of human c-Myc) generated by stable transfection with either an expression plasmid containing UL37S alone, or in a mixture with an expression plasmid coding for puromycin-N-acetyl-transferase such as pPUR (Clontech, Palo Alto, Calif.). Following the transfection, drug-resistant clones are selected in medium containing G418 (0.7 mg/mL) or in medium containing puromycin (1 μg/ml), and then the clones are screened for the expression of pUL36-myc-tagged and pUL37S-myc-tagged polypeptides, respectively, by Western analysis with 9E10 anti-Myc antibody (Santa Cruz Biotechnology, Inc., Santa Cruz, Calif.). In using this approach, the present inventors isolated four clones that expressed pUL37S-myc (designated as HeLa/UL37S). These clones were then used to conduct further studies reported in Example 9. Also, four G418-resistant clones of HeLa cells stably transfected with pcDNA3/myc (empty vector, control) were isolated by similar procedures, two with G418 (HeLa/G418) and two with puromycin (HeLa/puro), and used as a negative control in the Western blot analysis and experiments studying the anti-apoptotic activity of the clones.
Three transfected G418-resistant HeLa clones were isolated that stably express pUL37S myc (designated HeLa/UL37×1myc #3, #8, and #N1), as detected by Western blot analysis with the 9E10 anti-myc antibody (Evan et al., 1985, which is incorporated herein by reference) (FIG. 8A). In parallel, three HeLa clones were isolated following stable transfections with the pcDNA3 vector alone (designated HeLa/pcDNA3-A, -B, and —C). […] While virtually all of the HeLa/pcDNA3-A control cells died following an overnight exposure to anti-Fas antibody+CHX or TNF-α+CHX, only a small fraction of the pUL37Smyc-expressing cells underwent apoptosis after an overnight exposure to these agents FIG. 8B). Moreover, most of the pUL37Smyc-expressing cells continued to survive for more than 3 days of culturing in the presence of either anti-Fas antibody+CHX or TNF-α+CHX.
The present inventors tested whether pUL37S can inhibit apoptosis triggered by other stimuli. […] Thus, pUL37S is a broadly acting inhibitor of apoptosis that can inhibit or diminish cell death induced by a variety of cytotoxic agents.

HeLa/UL37x1#3 cells = assay: Dominant-negative assay: pUL37S deletion mutants in HeLa/UL37x1#3 cells, β-galactosidase ELISA; assay type: cell-based, human; conditions: HeLa/UL37S #3 cells transfected with the empty vector; anti-Fas plus cyclohexamide 24 h
Procedure: 24 h after co-transfection, the cells were either exposed for an additional 24 h to anti-Fas antibody, in the presence of cyclohexamide (FIGS. 11A and 11B, closed bars) or left untreated (FIGS. 11A and 11B, open bars). The surviving cells were than quantified by determining the β-galactosidase levels with a β-galactosidase ELISA (Boehringer Mannheim). […] The control HeLa/pcDNA3-A cells were sensitive to Fas-mediated apoptosis, and this sensitivity was not affected by the expression of the deletion mutants.
Apoptosis was induced in the cell line HeLa/UL37x1#3 (HeLa cells transfected with UL37x1, clone No. 3), that constitutively expresses pUL37Smyc and is resistant to apoptosis, through the addition of anti-Fas antibodies and cyclohexamide to the culture medium. To identify dominant-negative mutants, HeLa/UL37x1#3 cells were co-transfected with the lacZ (encoding β-galactosidase) indicator plasmid vector, together with either an expression vector for a pUL37S deletion mutant or the empty plasmid vector, pcDNA3. […]
One day after the transfection, cells were treated with anti-Fas antibody plus cyclohexamide for 24 h. Cell survival was then assessed by measuring spectrophotometrically the level of β-galactosidase expression, as described in Example 1. […]

pro-domain of caspase 8 = biological target: T1, pro-domain of caspase 8 (Homo sapiens, UniProt Q14790); assay: Co-precipitation in co-transfected 293T cells (anti-HA IP, anti-myc blot); assay type: binding; conditions: HA-tagged pro-domain
T1 construct: a truncated pro-caspase 8, containing only its HA-tagged pro-domain region; expressed in transfected cells; host or cells: 293T cells co-transfected with pUL36AD169-earlymyc or pUL36AD169-ATCCmyc
Excerpt: (§1) Pro-caspase 8 was detected on the pUL36-containing beads (lane 4), but not on the control beads (lane 2), while the lysates from all these cells contained similar amounts of pro-caspase 8 (compare lanes 1 and 3). […] To test this hypothesis, 293T cells were co-transfected with pUL36AD169-earlymyc and with a truncated pro-caspase 8, containing only its HA-tagged pro-domain region. pUL36AD169-earlymyc is expressed by a fusion gene comprising a UL36 ORF isolated from a pre-1982 passage of CMVAD169 and the carboxy-linked myc epitope tag. The cells were lysed as above, and anti-HA antibody was used to immunoprecipitate the caspase 8 pro-domain. Anti-myc antibodies were then used to probe a Western blot for the inclusion of pUL36 with the immunoprecipitated material. Control cells were transfected with pUL36AD169-earlymyc with either the empty vector (negative control), or with HA-tagged pro-caspase 8 (positive control). Additional cells were co-transfected with the non-functional mutant pUL36AD169-ATCCmyc with either the HA-pro-domain, the empty vector or HA-pro-caspase 8.

[2] = biological target: T2, full-length pro-caspase 8 (Homo sapiens, UniProt Q14790); assay: as above; assay type: binding; conditions: HA-tagged pro-caspase 8
T2 construct: HA-tagged full-length pro-caspase 8 (lanes 5 and 6); expressed in transfected cells; host or cells: 293T cells co-transfected with pUL36AD169-earlymyc or pUL36AD169-ATCCmyc
Excerpt: as §1

HeLa cells [3] = assay: Transient transfection apoptosis assay in HeLa cells (anti-Fas antibody+CHX or TNF-α+CHX); assay type: cell-based, human; conditions: transiently transfected HeLa cells; anti-Fas antibody+CHX 24 h; surviving cells scored
Procedure: Tumor necrosis factor receptor 1 (TNF-R1)-mediated apoptosis was induced by exposure of HeLa and MRC-5 cells to tumor necrosis factor-α (TNF-α) (Sigma, 10-60 ng/mL)+CHX (10-30 μg/mL). Fas-mediated apoptosis was induced by exposure of cells to an anti-Fas antibody (Coulter, 7C11 antibody at 0.2-4 μg/mL)+CHX (10-30 μg/mL). The degree of cell death was determined by the visual scoring of surviving cells, in representative fields, under a phase microscope. A similar degree of cell death occurred in fibroblasts when examined 5 to 28 h after the start of exposure, or a similar degree of cell death occurred in HeLa cells when examined 9-28 h after the start of exposure. Further, a similar degree of cell death for a given reagent was produced when any concentration within the range indicated above was used.
The degree of cell death in cells transfected with an indicator plasmid expressing E. coli β-galactosidase was determined by either a β-galactosidase ELISA (Boehringer Mannheim), in accordance with the manufacturer's recommendations, or by visually scoring, under a microscope, positive blue cells, expressing β-galactosidase, after staining them with X-gal.
HeLa cells were transiently co-transfected with an expression plasmid vector, pME18S, carrying a polynucleotide sequence encoding IE1 or IE2 (FIG. 5, “IE1” and “IE2,” respectively), and a vector carrying the β-galactosidase gene (pCMVβ, Clontech). As a positive control, HeLa cells were transiently co-transfected with pCMVβ and a vector carrying a polynucleotide sequence encoding an anti-apoptotic polypeptide, such as the adenovirus E1B 19K or baculovirus p35.
Expression of IE1 (approx. 72 kDa) and IE2 (approx. 86 kDa) in the transfected HeLa cells was confirmed by Western blot analysis, by immunofluorescence visually examined under a fluorescence microscope, and by transactivation activity which led to an elevation of the vector-CMV-promoter-driven β-galactosidase expression which was increased 2- to 5-fold, as measured by a β-galactosidase ELISA (data not shown). Apoptosis was induced by incubating the transfected cells for 24 h with either TNF-α+CHX, or anti-Fas antibody+CHX. The surviving cells were stained with X-gal, a chromogenic substrate of β-galactosidase, and then the blue-stained cells were scored (FIG. 5).
To identify HCMV genes that can suppress apoptosis induced by Fas-ligation, the present inventors established a transient transfection assay in HeLa cells. The HeLa cells can be transfected at much higher efficiency than MRC-5 cells and are similar in their sensitivity towards anti-Fas antibody and TNF-α treatment. Enhanced survival of HeLa cells following anti-Fas antibody+CHX treatment was detected by elevated β-galactosidase (β-gal) levels produced by a transfected β-gal marker plasmid.
The deletion mutants were transiently expressed in HeLa cells, cultured in DMEM supplemented with 10% fetal bovine serum, and assayed for their ability to block Fas- or TNF-R1-mediated apoptosis. Transfections and apoptosis assays were performed as previously described (Goldmacher et al., 1999). Briefly, cells were transiently transfected with the expression vectors (purified with a Qiagen plasmid purification kit) using SuperFect transfection reagent (Qiagen) in accordance with the manufacturer's protocol. After 24 hours, cells were exposed to anti-Fas 7C11 antibody (Coulter, 0.5 μg/ml)+cyclohexamide (Sigma, 10 μg/ml) for 24 hours.
A genomic DNA library was cloned into pZeoSV2(+) plasmid (Invitrogen). Ten cosmids, pCM1007, pCM1015, pCM1017, pCM1029, pCM1035, pCM1039, pCM1040, pCM1052, pCM1058, and pCM1072, covering the AD169 genome (Fleckenstein et al., 1982, which is incorporated herein by reference), and pON2601 Toledo cosmid (Cha et al., 1996, which is incorporated herein by reference) containing unique HCMV sequences, were mixed in equal amounts and partially digested with Sau3AI (New England Biolabs, Beverly, Mass.). […]

T2 sequence (Q14790 whole entry): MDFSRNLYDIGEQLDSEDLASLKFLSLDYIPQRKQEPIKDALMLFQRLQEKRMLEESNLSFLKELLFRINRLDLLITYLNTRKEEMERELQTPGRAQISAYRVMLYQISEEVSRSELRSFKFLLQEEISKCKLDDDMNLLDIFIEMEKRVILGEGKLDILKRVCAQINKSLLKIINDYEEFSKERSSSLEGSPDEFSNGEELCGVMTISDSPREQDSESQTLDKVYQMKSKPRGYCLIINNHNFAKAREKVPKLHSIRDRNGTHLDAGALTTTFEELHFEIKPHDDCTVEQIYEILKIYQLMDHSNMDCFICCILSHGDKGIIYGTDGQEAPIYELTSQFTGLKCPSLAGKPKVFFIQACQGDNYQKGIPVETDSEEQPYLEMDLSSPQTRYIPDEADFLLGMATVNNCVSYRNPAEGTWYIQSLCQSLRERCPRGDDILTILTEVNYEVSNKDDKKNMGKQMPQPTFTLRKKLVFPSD
T1 sequence (Q14790 1-216 limits assumed): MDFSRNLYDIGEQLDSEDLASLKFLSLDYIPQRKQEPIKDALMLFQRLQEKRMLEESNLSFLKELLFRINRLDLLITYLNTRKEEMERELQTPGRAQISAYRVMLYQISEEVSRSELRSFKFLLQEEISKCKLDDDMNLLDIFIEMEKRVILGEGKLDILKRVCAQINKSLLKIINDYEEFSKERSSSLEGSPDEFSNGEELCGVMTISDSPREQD

Molecule | resistance to apoptosis induced by doxorubicin (HeLa cells [1]; doxorubicin 1, 3, and 6 μM, 24 h, trypan blue exclusion) | duration of survival in culture with apoptotic stimulus (HeLa cells [1]; in the presence of either anti-Fas antibody+CHX or TNF-α+CHX) | resistance to TNF-R1-mediated apoptosis (HeLa cells [1]; stable HeLa clones, TNF-α+CHX) | resistance to Fas-mediated apoptosis (HeLa cells [1]; stable HeLa clones, anti-Fas antibody+CHX) | β-gal signal compared to untreated cells (HeLa/UL37x1#3 cells) | co-precipitation with the pro-domain of caspase 8 (pro-domain of caspase 8) | co-precipitation with full-length pro-caspase 8 [2] | anti-apoptotic activity: protection against Fas-mediated apoptosis (HeLa cells [3])
B1 | substantially more resistant | more than 3 days | resistant | resistant | about 40% | – | – | –
B2 | – | – | – | – | – | co-precipitated | co-precipitated | effective death suppressors
